Columns and labels:
Test in all cases: ELISA
interleukin 6 (IL-6) = interleukin 6 (IL-6) (Homo sapiens (assumed; ), UniProt P05231)
[1] = target: recombinant SARS-CoV nucleocapsid protein (SCoV-N), His6-tagged (SARS-CoV, strain CUHK-W1, UniProt P59595)
[2] = target: recombinant interleukin 11 (IL-11) (Homo sapiens (assumed; ), UniProt P20809)
recombinant interleukin 11 (IL-11), sequence (P20809 22-199): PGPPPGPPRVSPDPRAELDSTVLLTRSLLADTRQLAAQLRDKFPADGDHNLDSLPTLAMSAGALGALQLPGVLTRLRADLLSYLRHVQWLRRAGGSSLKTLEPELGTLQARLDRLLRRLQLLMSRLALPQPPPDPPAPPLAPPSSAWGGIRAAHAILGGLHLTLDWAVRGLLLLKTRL

recombinant SARS-CoV nucleocapsid protein (SCoV-N), His6-tagged, sequence (P59595 whole entry): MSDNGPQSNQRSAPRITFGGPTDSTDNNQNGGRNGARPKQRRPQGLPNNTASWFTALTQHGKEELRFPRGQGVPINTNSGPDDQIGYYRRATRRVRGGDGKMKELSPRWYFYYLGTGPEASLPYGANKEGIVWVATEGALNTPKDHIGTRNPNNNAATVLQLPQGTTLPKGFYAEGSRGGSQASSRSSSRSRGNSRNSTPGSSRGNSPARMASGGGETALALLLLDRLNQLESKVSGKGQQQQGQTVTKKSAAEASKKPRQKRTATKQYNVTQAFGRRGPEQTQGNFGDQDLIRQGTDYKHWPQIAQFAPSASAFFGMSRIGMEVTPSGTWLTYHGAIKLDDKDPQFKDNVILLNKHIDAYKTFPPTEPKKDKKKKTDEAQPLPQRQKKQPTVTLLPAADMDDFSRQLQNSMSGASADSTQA
interleukin 6 (IL-6), sequence (P05231 30-212): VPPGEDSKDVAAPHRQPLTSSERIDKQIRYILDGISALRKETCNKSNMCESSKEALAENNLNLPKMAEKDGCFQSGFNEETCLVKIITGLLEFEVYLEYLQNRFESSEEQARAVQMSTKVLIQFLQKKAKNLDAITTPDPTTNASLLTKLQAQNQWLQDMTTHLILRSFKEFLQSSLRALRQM

B1: anti-N scFv L9N01 (scFv-phage clone) (scFv, V domains shown)
VH: GEAAAVQGTEVVKPGASVKLSCKASGYIFTSYDIDWVRQTPEQGLEWIGWIFPGEGSTEYNEKFKGRATLSVDKSSSTAYMELTRLTSEDSAVYFCARGDYYRRYFDLWGQGTTVTVSS
VL: DIELTQSPAIMSASPGERVTMTCSASSSIRYIYWYQQKPGSSPRLLIYDTSNVAPGVPFRFSGSGSGTSYSLTINGMEAEDAATYYCQEWSGYPYTFGGGTKLELK
- binding result (interleukin 6 (IL-6)): no binding
- binding result [1]: binds
- binding result [2]: binds

Reference: PMC7092895 (Biochemical and Biophysical Research Communications, 2005)
